Experiment: soluble on expression in E. coli; label from the status in PepcDB or PDB records
In the case of “MGSDKIHHHHHHMNHLVEVQHMERMNRTNHIQKLDKERYLNLKTGEIGEFKQGEVRSDSLNSLRQTFKKLRYLINTNYVGAGNELFITLTYKENMTDVKRLYSDFKKFMLKFRYKYEKQYGSIDYMTVVEPQERGAWHHHLLVRFNDMTGSKMYIPNNDVAALWGHGFTNMHSLNGVDNIGAYLSAYLADVELTTDNVFLAFDDNVEVVSKVVDGQEKKFIKGGRLHLYPSGMNLYRKSKGIKMPVREEMRYGDIKKVVGSEKPHYVKTLVVEQDDFKNTITYEQYNTKR”, the “soluble on expression in E. coli” value is reported as “not soluble”.
In the case of “MATLFIADLHLCVEEPAITAGFLRFLAGEARKADALYILGDLFEAWIGDDDPNPLHRQMAAAIKAVSDSGVPCYFIHGNRDFLLGKRFARESGMTLLPEEKVLELYGRRVLIMHGDTLCTDDAGYQAFRAKVHKPWLQMLFLALPLFVRKRIAARMRANSKEANSSKSLAIMDVNQNAVVSAMEKHQVQWLIHGHTHRPAVHELIANQQPAFRVVLGAWHTEGSMVKVTADDVELIHFPFLEHHHHHH”, the “soluble on expression in E. coli” value is reported as “not soluble”.
With “MSKIASEVVATTLNDWYIAIKKQKVDESIKYYSEIKKLFDEMEEDQEVLAYYSLLEERHKMLLHSSRGEPLQKHTYFTEDNQNFITKTNDKLEYNFYLFEAMYEAYNKNYDRAINLYGLAEKKLAEIPDEIEAAEFYSKVSYLYTLVKQSIVAQHYIKNAISIYKRHPDYKCKLATSTMIAAANYADMKRFEEAEQYYLEAIDIAKETKDEFLKAQLFHNLSIVYSDWNKPDKCIESLEKAIGNESWLHSIYYINSLFMMIKELFKIDEKMKAINFYNKAQERLILMENKVYEAKISILYNLYCGELKNNFNNCISNIEFLKQQNELESVDELSYIAAKRFESIGAFEEATSFFNAKIWAEQKMNQVEGIL” the “soluble on expression in E. coli” value was “not soluble”.
With “MDKKSKLINLLKEVGCIRFGEFILASGKKSNYYIDIKKATTNPEILKLVGEIIAEQIKDEDVKVAGVELGSVPIATAVSIIAQKPLLIVRKKPKDYGTKNKIEGELKEGDKVVIVEDVTTTGGSVLKAVKEIRENGGIVDKVFVVVDRLEGAKENLQKENVELIPLVTVKELQSTQ” the “soluble on expression in E. coli” value was “soluble”.
With “MGSDKIHHHHHHMYSYNQLRRVTFNQLGRIAYNSRSSPRRRAVFERLAGARPVVLTQERERLAVLDHANDIILEQEINGIDTVTFNIPFSDEKNQFIQNEHLIQIIDDYYIIRKITHSRGSQGVPITEVYAEALWYDLQFAEPMDISEWEGRAPAIVMADILRGTDWSVGRVELMNVRNVSVEPGVTNRLAALSQLPEVYGGELHFNSEAMTVDFLAPVGRQSGAAIVYEKNIHSIEAIYDTEDLITRIYPYGKENLSIEDINDGVPYLDIRDDPSYEFTDKLRVRILKDDRFTNPFHLREMAEEALKVLSQPRTSYHIKAADLSEMAGMSHEQFFLGDEVRVYDKELGIDIATRIMAWQYNVAEPWNTEIMLESKQPTLSDLLTGIQEGTGFLQSEDTVDSSDMLELSVFNHILNSRADDGFHYWTNSGWEIDAVNGYSGNASFKATGTTGRKVLSQTVYPAHRDHYAISFRSATKEFQTNDGGRVGLEIIVRYDDGTEDEPTFISLT” the “soluble on expression in E. coli” value was “not soluble”.
With “MPPSLRKAVAAAIGGGAIAIASVLITGPSGNDGLEGVSYIPYKDIVGVWTVCHGHTGKDIMLGKTYTKAECKALLNKDLATVARQINPYIKVDIPETMRGALYSFVYNVGAGNFRTSTLLRKINQGDIKGACDQLRRWTYAGGKQWKGLMTRREIEREICLWGQQ” the “soluble on expression in E. coli” value was “soluble”.
In the case of “MVMEDNESCASRVIFDALPTSQATMDRRERIKMEVFDEVLRRLRQSDIEDAHLPGFEDDLWNHFNRLPARYALDVNVERAEDVLMHKRLLHSAYDPQNRPAIEVHLVQVQPAGISADLDSTSNDAGHSSPTRKSIHPPPAFGSSPNLEALALAASLSQDEDADNSVHNNSLYSRPLHEITFSTEDKPKLLFQLTALLAELGLNIQEAHAFSTTDGYSLDVFVVDGWPYEETERLRISLEKEAAKIELQRPDFSEIIEQLQEIAKEVGEEGEEKKKSSTGLGGGIFAALRRSTTHH”, the “soluble on expression in E. coli” value is reported as “soluble”.

From the DeepSol protein solubility set
